In patent US10500249B2, “Compositions and methods for preventing or treating diseases, conditions, or processes characterized by aberrant fibroblast proliferation and extracellular matrix deposition” (MOERAE MATRIX, INC., priority 2014, dated 2019):

Assays:
Test in all cases: Kinase Profiling Assay
Assay type in all cases: biochemical
Conditions in all cases: 100 μM
Abl (Q252H) (h) = Abl (Q252H) (h) (Homo sapiens, UniProt P00519, Q252H)
Outline: (§1)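 Each kinase activity was measured in duplicate. Phosphorylation of a positively charged substrate with radiolabeled phosphate from ATP was captured on a negatively charged filter, counted by scintillation and expressed relative to a 100% activity control. MK2 inhibitory peptides were screened for specificity across 266 human kinases.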

BRK (h) = BRK (h) (Homo sapiens, UniProt Q13882)
Outline: as §1

EphA1 (h) = target: T1, EphA1 (h) (Homo sapiens, UniProt P21709)
T1 construct: purchased Millipore
T1 sequence (P21709 26-976): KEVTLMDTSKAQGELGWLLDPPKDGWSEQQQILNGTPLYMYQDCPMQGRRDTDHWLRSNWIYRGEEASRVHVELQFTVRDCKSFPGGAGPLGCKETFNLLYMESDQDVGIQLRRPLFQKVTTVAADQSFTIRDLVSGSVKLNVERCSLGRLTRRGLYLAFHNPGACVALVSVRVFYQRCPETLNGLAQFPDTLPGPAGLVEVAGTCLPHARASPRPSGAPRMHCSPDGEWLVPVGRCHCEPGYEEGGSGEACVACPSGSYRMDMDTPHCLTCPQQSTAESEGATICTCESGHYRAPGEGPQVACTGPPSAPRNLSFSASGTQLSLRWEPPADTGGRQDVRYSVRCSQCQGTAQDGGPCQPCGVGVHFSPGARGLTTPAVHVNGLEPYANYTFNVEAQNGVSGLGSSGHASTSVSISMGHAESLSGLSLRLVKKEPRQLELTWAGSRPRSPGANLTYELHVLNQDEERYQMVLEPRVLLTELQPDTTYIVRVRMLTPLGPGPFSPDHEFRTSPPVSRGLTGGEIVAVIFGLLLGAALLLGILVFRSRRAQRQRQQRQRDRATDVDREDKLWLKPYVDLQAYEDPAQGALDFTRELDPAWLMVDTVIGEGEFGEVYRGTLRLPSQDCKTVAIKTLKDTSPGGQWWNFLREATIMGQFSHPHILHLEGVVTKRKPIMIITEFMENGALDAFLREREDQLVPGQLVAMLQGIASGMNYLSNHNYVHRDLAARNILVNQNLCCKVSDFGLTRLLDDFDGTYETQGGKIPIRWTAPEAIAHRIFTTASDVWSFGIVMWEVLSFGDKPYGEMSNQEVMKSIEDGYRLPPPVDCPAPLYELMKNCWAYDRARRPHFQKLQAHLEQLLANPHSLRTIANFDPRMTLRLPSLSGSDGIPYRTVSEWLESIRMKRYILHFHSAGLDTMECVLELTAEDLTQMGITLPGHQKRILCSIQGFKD
Outline: as §1

EphA5 (h) = EphA5 (h) (Homo sapiens, UniProt P54756)
Outline: as §1

PASK (h) = target: T2, PASK (h) (Homo sapiens, UniProt Q96RG2)
T2 construct: purchased Millipore
Outline: as §1

PhKγ2 (h) = target: T3, PhKγ2 (h) (Homo sapiens, UniProt P15735)
T3 construct: purchased Millipore
T3 sequence (P15735 1-406): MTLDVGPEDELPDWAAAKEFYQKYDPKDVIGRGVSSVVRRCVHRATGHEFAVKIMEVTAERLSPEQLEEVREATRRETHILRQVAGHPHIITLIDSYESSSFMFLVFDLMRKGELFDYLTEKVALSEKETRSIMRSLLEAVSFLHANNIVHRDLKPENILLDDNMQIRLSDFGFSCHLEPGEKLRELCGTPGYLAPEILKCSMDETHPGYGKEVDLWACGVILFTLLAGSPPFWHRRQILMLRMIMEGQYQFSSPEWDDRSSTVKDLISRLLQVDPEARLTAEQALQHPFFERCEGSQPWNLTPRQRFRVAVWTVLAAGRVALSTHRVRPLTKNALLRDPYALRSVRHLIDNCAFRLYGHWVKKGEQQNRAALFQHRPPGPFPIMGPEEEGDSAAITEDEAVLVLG
Outline: as §1

Tec (h) activated = target: T4, Tec (h) activated (Homo sapiens, UniProt P42680)
T4 sequence (P42680 1-631): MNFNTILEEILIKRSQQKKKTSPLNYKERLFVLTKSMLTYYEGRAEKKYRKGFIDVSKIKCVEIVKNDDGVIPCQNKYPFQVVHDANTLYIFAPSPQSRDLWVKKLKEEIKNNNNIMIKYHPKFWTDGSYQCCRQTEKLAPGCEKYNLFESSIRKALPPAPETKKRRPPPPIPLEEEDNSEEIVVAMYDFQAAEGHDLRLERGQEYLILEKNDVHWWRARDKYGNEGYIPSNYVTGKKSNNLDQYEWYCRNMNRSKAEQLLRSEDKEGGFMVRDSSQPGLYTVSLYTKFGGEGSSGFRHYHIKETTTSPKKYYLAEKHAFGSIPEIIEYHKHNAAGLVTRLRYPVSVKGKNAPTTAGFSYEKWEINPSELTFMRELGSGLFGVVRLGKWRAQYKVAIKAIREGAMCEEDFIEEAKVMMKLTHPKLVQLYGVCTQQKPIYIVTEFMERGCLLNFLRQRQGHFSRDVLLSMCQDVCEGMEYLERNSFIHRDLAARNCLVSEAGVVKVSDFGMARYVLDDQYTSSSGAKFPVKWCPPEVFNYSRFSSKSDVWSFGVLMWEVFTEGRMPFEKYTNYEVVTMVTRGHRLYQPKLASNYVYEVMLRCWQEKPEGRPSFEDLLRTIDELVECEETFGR
Outline: as §1

WNK3 (h) = WNK3 (h) (Homo sapiens, UniProt Q9BYP7)
Outline: as §1

BRK (h), sequence (Q13882 whole entry): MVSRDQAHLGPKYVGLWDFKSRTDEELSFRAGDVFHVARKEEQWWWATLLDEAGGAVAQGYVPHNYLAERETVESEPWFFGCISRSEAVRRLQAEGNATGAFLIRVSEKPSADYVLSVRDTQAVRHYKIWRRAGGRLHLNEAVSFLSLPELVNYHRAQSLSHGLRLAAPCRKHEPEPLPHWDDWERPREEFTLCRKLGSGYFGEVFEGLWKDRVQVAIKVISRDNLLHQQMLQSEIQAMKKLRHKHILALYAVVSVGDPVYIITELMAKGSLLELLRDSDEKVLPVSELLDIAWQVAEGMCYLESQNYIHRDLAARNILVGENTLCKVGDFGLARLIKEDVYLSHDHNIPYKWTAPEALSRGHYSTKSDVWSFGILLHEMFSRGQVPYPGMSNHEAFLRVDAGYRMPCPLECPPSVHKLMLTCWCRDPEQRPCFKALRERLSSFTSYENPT
WNK3 (h), sequence (Q9BYP7 whole entry): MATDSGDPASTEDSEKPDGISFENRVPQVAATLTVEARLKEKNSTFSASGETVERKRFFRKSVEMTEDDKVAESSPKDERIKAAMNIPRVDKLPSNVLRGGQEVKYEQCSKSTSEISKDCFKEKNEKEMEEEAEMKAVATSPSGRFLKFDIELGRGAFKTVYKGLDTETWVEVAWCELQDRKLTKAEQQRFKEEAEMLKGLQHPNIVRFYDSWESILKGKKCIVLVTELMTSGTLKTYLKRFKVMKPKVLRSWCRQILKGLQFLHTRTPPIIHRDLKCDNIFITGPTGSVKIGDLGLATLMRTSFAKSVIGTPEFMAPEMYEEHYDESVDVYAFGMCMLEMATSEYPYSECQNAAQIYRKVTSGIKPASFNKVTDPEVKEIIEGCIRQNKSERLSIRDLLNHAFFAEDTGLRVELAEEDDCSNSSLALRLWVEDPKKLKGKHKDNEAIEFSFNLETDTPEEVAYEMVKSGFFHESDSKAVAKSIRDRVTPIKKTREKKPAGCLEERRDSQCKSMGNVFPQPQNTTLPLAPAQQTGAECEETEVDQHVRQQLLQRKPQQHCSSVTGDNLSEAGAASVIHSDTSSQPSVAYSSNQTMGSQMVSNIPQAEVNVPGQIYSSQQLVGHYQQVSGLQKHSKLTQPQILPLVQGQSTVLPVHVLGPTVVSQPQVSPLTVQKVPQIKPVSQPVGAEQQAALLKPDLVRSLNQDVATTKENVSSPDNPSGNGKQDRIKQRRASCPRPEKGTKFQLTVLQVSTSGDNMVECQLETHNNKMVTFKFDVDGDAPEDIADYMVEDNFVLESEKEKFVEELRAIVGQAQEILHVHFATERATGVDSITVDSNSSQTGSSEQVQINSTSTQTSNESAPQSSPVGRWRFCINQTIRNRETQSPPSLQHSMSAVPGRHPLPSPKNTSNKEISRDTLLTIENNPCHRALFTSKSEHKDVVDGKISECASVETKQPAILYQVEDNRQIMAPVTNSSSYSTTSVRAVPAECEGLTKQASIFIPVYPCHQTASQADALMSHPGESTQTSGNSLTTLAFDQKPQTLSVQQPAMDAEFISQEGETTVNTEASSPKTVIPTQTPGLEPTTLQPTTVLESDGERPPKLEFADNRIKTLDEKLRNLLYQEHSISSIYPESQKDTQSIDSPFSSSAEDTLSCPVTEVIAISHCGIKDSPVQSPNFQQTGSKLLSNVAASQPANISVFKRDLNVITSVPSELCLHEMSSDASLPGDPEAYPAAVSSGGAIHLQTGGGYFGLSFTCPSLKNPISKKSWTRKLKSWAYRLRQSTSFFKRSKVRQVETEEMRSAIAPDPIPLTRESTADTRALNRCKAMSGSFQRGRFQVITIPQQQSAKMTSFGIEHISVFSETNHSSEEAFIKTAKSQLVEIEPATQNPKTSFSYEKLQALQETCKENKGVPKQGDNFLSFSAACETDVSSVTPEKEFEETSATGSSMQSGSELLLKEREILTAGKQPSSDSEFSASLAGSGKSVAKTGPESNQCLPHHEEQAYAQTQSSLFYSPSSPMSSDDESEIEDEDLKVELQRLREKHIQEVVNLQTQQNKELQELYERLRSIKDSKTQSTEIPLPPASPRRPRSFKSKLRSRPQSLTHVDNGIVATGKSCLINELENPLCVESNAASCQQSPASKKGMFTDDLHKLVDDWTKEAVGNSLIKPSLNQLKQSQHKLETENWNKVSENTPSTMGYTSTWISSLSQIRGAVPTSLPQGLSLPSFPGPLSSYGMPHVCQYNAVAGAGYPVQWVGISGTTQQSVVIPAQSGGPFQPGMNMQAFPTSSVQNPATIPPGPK
EphA5 (h), sequence (P54756 25-1037): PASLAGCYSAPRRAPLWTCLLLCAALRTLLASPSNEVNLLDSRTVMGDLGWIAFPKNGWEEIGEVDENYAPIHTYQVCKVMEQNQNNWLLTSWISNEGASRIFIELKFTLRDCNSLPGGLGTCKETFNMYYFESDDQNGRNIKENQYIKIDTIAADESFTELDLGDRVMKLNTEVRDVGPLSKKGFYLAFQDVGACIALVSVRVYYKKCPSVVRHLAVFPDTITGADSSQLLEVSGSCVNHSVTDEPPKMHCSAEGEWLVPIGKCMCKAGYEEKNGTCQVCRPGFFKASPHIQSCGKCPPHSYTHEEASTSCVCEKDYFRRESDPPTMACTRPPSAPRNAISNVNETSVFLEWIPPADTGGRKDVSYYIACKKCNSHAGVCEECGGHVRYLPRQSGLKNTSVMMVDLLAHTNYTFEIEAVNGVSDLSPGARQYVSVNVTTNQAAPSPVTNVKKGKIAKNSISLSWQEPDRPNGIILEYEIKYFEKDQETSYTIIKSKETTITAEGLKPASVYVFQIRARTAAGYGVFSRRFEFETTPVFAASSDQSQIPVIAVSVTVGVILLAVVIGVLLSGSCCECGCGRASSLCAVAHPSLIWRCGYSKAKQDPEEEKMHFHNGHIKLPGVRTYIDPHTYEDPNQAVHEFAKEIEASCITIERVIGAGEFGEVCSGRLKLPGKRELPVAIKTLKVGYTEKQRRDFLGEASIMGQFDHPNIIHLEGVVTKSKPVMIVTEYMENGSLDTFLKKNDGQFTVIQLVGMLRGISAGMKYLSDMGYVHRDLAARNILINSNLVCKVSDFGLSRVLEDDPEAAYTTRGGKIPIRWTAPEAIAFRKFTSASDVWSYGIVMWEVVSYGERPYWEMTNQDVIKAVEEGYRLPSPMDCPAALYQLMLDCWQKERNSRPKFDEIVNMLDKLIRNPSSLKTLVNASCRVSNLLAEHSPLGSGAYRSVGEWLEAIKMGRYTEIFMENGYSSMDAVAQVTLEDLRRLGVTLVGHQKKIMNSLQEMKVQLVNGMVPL
T2 sequence (Q96RG2 whole entry): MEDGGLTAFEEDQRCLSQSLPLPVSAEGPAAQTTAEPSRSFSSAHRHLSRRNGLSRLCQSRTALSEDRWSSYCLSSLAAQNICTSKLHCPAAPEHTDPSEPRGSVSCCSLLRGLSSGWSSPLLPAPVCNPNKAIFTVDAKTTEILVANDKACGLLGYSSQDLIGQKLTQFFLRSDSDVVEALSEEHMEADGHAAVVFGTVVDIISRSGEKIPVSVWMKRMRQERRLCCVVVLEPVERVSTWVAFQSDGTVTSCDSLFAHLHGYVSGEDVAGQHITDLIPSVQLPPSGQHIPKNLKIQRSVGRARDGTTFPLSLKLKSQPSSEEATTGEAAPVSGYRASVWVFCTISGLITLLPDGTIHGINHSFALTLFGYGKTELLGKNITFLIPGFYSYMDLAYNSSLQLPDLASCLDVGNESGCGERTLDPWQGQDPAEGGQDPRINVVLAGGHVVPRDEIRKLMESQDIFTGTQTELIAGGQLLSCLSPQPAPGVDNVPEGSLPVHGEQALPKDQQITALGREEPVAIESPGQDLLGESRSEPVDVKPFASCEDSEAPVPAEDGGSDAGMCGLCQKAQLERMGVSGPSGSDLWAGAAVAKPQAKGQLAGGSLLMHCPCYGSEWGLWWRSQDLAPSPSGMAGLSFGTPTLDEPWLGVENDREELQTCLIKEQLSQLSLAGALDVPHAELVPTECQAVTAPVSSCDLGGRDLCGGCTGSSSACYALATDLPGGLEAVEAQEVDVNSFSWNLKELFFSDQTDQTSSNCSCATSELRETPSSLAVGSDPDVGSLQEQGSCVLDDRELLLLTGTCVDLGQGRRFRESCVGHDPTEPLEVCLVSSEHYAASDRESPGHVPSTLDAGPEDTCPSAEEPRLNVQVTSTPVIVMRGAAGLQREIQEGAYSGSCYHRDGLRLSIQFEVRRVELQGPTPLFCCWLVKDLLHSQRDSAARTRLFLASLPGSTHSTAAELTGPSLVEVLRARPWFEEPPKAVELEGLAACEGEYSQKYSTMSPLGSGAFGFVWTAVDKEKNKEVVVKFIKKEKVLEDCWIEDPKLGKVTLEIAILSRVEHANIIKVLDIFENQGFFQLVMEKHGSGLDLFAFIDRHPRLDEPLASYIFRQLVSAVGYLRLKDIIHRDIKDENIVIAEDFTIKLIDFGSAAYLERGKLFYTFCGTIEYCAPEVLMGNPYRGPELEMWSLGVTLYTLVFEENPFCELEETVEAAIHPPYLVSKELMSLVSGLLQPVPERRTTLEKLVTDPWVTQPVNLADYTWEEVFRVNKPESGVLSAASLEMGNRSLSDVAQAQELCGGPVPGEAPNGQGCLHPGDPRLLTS

Sequence | % activity (Abl (Q252H) (h)) [%] | % activity (BRK (h)) [%] | % activity (EphA1 (h)) [%] | % activity (EphA5 (h)) [%] | % activity (PASK (h)) [%] | % activity (PhKγ2 (h)) [%] | % activity (Tec (h) activated) [%] | % activity (WNK3 (h)) [%]
FAKLAARLYRKALARQLGVAA [MMI-0300] | 82 | 35 | 73 | 18 | 29 | 46 | 56 | 77
HRRIKAWLKKIKALARQLGVAA (Mammalian) [MMI-0500] | 40 | 41 | 40 | 42 | 9 | 16 | 33 | 9
KAFAKLAARLYRKALARQLGVAA [MMI-0400] | 98 | 18 | 61 | 24 | 28 | 38 | 29 | 74
YARAAARQARAKALNRQLGVA (Mammalian) [MMI-0200] | – | 127 | – | 123 | 60 | 86 | 77 | 97
